{
  "source": "patent US5455181A",
  "about": "“Thrombin-inhibitory proteins from terrestrial leeches” (BASF Aktiengesellschaft, priority 1991, dated 1995)",
  "target": "T1, Thrombin (Homo sapiens, UniProt P00734)",
  "T1 construct": "purchased Boehringer Mannheim",
  "experiment": "Determination of the inhibition of thrombin (Chromozym TH chromogenic substrate, absorption at 405 nm)",
  "format": "biochemical",
  "settings": "periplasmic expression in E. coli DH 5α, fusion protein with maltose binding protein",
  "description": "The purification of the proteins can be followed by a thrombin activity assay. It is expedient to use for this an optical assay in which a chromogenic substrate, for example Chromozym TH, is converted by thrombin. The fractions containing the novel proteins can be identified on addition to this optical assay by their thrombin-inhibiting action.\nThrombin (Boehringer Mannheim) was dissolved to a final concentration of 25 mU/ml in phosphate-buffered saline (PBS) ([…] NaCl; 0.2 g/1 […]; 0.144 g/l sodium phosphate; 0.2 g/l potassium phosphate, pH 7.5).\nChromozym TH (Boehringer Mannheim) was dissolved in 20 ml of H2 O/vial.\n50 μl of thrombin solution and 100 μl of Chromozym plus 25 μl of sample or buffer were placed in the wells of a microtiter plate. The absorption at 405 nm was measured immediately thereafter at time 0 and after 30 minutes at 37° C.\nThe thrombin activity leads to liberation from the chromogenic substrate of a dye which absorbs at 405 nm. The inhibition of thrombin by a thrombin inhibitor is evident from a smaller increase in absorption at 405 nm and was quantified using a calibration plot.",
  "note": "No end group written: not given here.",
  "data": [
    {"substance": "thrombin inhibitor: recombinant protein, SEQ ID NO: 23 position 1 to 57, expressed in E. coli as fusion protein with maltose binding protein (MFSTKMFVVFVAVCICVTQSIRFGMGKVPCPDGEVGYTCDCGEKICLYGQSCNDGQC; cysteine pairing not given here; also: expressed as fusion protein with maltose binding protein)", "values": [
      {"measurement": "concentration of the thrombin inhibitor", "result": "1250 units per liter of culture medium"}
    ]}
  ]
}
